Reference: paper PMC6925130, “Cleaved CD31 as a target for in vivo molecular imaging of inflammation” (Scientific Reports, 2019)
Non-standard residues stand in square brackets, D forms with d. Residues, ends and D or L forms follow the SMILES beside them. *: point of attachment. HYNIC = NNc1ccc(C(=O)*)cn1; PEG3 = NCCOCCOCCOCCC(=O)O

Key:
[1] = system: turpentine injected hindlimb (sterile acute inflammation); test: SPECT/CT and PET/MRI imaging of turpentine oil-induced sterile acute inflammation; format: in vivo, male Wistar rats; details: turpentine injected hindlimb / saline injected hindlimb; PET/MRI 1 h p.i., retro-orbital ≈20 MBq; n = 23
Experimental: Two to 3-month-old adult male Wistar rats, weighing 250–300 g were used. The animals were housed in a controlled environment. The procedures and animal care complied with the principles formulated by the National Society for Medical Research. All methods were performed in accordance with the guidelines of the French Directorate of Veterinary Services (authorization: No. 75-214). All methods were approved by the animal ethics committee of the Claude Bernard Institute (APAFIS #14821, Paris, France). Aseptic inflammation was obtained according to a standardized procedure consisting of turpentine oil injection characterized by a massive local influx of activated inflammatory cells[33],[34]. […]
Imaging procedures of ^99mTc-HYNIC-P8RI (D and L) were performed using Single Photon Emission Computed Tomography coupled to X-ray computed tomography (SPECT/CT). […] Reconstructed slices were visually assessed in 3 planes (axial, coronal, and sagittal). […]
Three-dimensional Regions of Interests (3D-ROIs) were placed on the inflammatory muscles and the mean signal per volume unit (kBq/mL) was measured. Assuming a tissue density of 1 g/mL, the radioactivity contained in the ROI was divided by the dose administered to the animal and the volume of the ROI to obtain an imaging ROI-derived % ID/g. […]

physchem = format: physicochemical; details: pH 7.2
Experimental: 500 µL of^ 99mTc-HYNIC-D-P8RI in PBS (pH 7.2) was added to 500 µL of octanol in a 1.5 mL conical vial. After 15 min of vortexing, the vial was centrifuged at 5000xg for 3 min. A 100 µL aliquot of both phases was collected in triplicate and counted with a gamma counter then log P values were calculated.

in vitro [2] = format: in vitro ADME; details: human, plasma
Experimental: Protein binding of the purified radiolabeled D-P8RI peptide (final concentration 100 pmol/mL) was determined in triplicate after 0, 0.5, 1, 2, 3 and 4 h of incubation in fresh human plasma (collected in citrate tubes) at 37 °C and analyzed after size exclusion chromatography (illustra Microspin G-50 Columns, Sephadex G-50, GE Healthcare, UK). Simultaneously, radiolabeled peptide was incubated in PBS at 37 °C as a control. G-50 columns were prespun at 2000 × g for 1 min then 20 μL of mixture was added and the column was centrifuged at 2000 × g for 2 min. Columns and eluates were counted on a Wallac Wizard 3″ 1480 (Perkin Elmer, MA, USA), then protein binding was calculated using the following activity (A) ratio: A eluate/(A column + A eluate).

in vivo = test: in vivo; design: species or system male Wistar rats; details: male, Wistar, rat, iv, 30 MBq, total radioactivity, Biodistribution
Experimental: Biodistribution of ^99mTc-HYNIC-D-P8RI was performed 15, 30, 90 min and 24 h post-injection. Animals (n = 3 for each time point) were injected intravenously through penis vein with 30 ± 3 MBq of ^99mTc-HYNIC-D-P8RI. They were sacrificed by isoflurane overdose and blood, heart, liver, thyroid, spleen, kidney, brain, intestine and muscle tissues were harvested and counted using a well counter. Results were expressed as the percentage of injected dose per gram of tissue (% ID/g). To characterize radiotracer elimination and potential degradation, rat urine was collected 90 min p.i, passed through a 0.22 µm PVDF filter (Durapore^TM 13 mm, Merck), and analyzed using RP-HPLC as described in Supplementary Data.

in vitro [3] = format: in vitro ADME; details: human, plasma; remark: listed apart in the source
Experimental: Plasma stability was assessed in triplicate at 1, 2 and 4 h after incubation of the radiolabeled D-P8RI peptide (final concentration 100 pmol/mL) in human plasma at 37 °C with RCP ≥94%. After precipitation of plasma proteins with acetonitrile and centrifugation (15000 × g, 10 min), the supernatant was analyzed by RP-HPLC as described in Supplementary Data. Plasma stability was expressed in RCP (%).

| SMILES | Mean signal ratio (TIH/SIH), PET/MRI [1] | logD (physchem) | fraction unbound at 0 h, 100 pmol/mL (in vitro [2]) | fraction unbound at 0.5 h, 100 pmol/mL (in vitro [2]) | tissue uptake at 1.5 h (in vivo; bladder) [%ID/g] | tissue uptake at 0.25 h (in vivo; blood) [%ID/g] | tissue uptake at 24 h (in vivo; blood) [%ID/g] | tissue uptake at 1.5 h (in vivo; kidney) [%ID/g] | remaining at 1 h, 100 pmol/mL (in vitro [3]) [%] | remaining at 2 h, 100 pmol/mL (in vitro [3]) [%] |
| --- | --- | --- | --- | --- | --- | --- | --- | --- | --- | --- |
| O=C[C@H]([18F])[C@@H](O)[C@H](O)[C@H](O)CO [[^18F]FDG, 2-deoxy-2-[^18F]fluoro-D-glucose] | 4.49 ± 0.43 |  |  |  |  |  |  |  |  |  |
| CC(C)C[C@@H](NC(=O)[C@@H](C)NC(=O)[C@H]1CCCN1C(=O)[C@@H](Cc1c[nH]c2ccccc12)NC(=O)[C@@H](CCCCN)NC(=O)CCOCCOCCOCCNC(=O)c1ccc(NN)nc1)C(=O)N[C@H](Cc1ccccc1)C(=O)N[C@@H](C(=O)N[C@H](CCCNC(=N)N)C(=O)O)C(C)C [^99mTc-HYNIC-D-P8RI, metal not drawn] ({HYNIC-PEG3}-[dK][dW][dP][dA][dL][dF][dV][dR]-OH) |  | -2.92 ± 0.04 | 0.928 | 0.952 | 61.4 ± 13.4 | 9.74 ± 1.21 | 0.04 ± 0.02 | 14 ± 2.93 | 93.02 ± 0.04 | 91.05 ± 0.02 |
